From the nanobody polyreactivity screen of Harvey et al. (2022)

Test: yeast display, Sf9 membrane polyspecificity reagent, FACS + sequencing; frameworks hold sequencing errors
Method in brief: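 Galactose-induced (36–48 hours) yeast carrying a synthetic nanobody display library were exposed to 10% biotinylated, detergent-solubilized Sf9 membrane reagent at 4 °C for 1 hour. FACS followed streptavidin microbead enrichment, using low and high (top ~1%) gates for expression (anti-HA) and reagent binding (streptavidin). Colony PCR, MiSeq 2 × 250 sequencing and CDR-length filtering followed. Labels for polyreactivity reflect the gate of origin.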

Sequence	polyreactivity (PSR sort gate)
QVQLVESGGGLVQAGGSLRLTCAASGRILTCYAMGWYRQEPGKERELVASINWRGGSTYYADSVKGRFTISRDNAKNTVYLQMNSLKPEDTAGYYCARYKYTRQTRVEYGYWGQGTQVTVSS	high polyreactivity
QVQLVESGGGLVQAGGSLRLTCAASGRILVSYSMGWYRQAPGKERELVAAISRSGGSTYYADSVKGRFTISRDNAKNTVYLQMNSLKPEDTAVYYWNVYRFSRYDYWGQGTQVTVSS	high polyreactivity
QVQLVESGGGLVQAGGSLRLTCAASGRSFRRYAMGWYREAPGKERELVAAITWRGSSTYYADSVKGRFTISRDNAKNTVYLQMNSLKPEDTAVYYCAADIGYTYEYYYWGQGTQVTLSS	high polyreactivity
QVQLVESGGGLVQAGGSLRLTCAASGRTFIVYAMGWYRQAPGKERELVAGITRGSTNYADSVKGRFTISRDNAKNTVYLQMNSLKPEDTAVYYCATEVYIWPWGTVYAFEYDYWGQGTQVTVSS	high polyreactivity
QVQLVESGGGLVQAGGSLRLTCAASGRTFNPYAMGWYRQAPGKERELVARIRGTGVSTYYADSVKGRFTISRDYAKNTVYLQMNSLKPEDTDVYYINAVATPVSDRWSYLSHGWYYYWGHGTQVTVSS	high polyreactivity
QVQLVESGGGLVQAGGSLRLTCAASGRTFNVNVMGWSRQAPGKERELVAAIRYTGGSTYADSVKGRFTISRDNAKNTVYLQMNSLKPEDTAVYYCNADTFFPFDHGMDYWGQGTQVTVSS	low polyreactivity
QVQLVESGGGLVQAGGSLRLTCAASGRTFRANAMGWYRQATGKERELVAAISQRGGNTYYADSVKGRFTSSRDNAKNTVYFQMNSLKPEDTAVYYCAADITTYRRGRYEYEYWGQGTQVTVSS	high polyreactivity
QVQLVESGGGLVQAGGSLRLTCAASGRTFRPYDMGWYRQAPGKQRELVATITTNGGSTYYADSVKGRFTISRDNAMNTVYLQMTSLKPEDTAGYYCATDNSWPTYHYDGGYYWGQGTQVTVSS	low polyreactivity
QVQLVESGGGLVQAGGSLRLTCAASGRTFRSYTMGWYRQAPGKERELVAAISGSGGRTYYADYVKGRFTISRDNAKNNVYLQMNILKPEDTADYYCNKGFTDYHYYYWGQGTQVTVSS	high polyreactivity
QVQLVESGGGLVQAGGSLRLTCAASGRTFWRYGMGWYRPAPVKETELVAAITDSVDSTNYADSVKGRFTISRDNAKNTVYLQMNSLKPEDTAVYYCAASDVVFALNGYYPGEDDYWGQGTQVTVSS	low polyreactivity
QVQLVESGGGLVQAGGSLRLTCAASGRTFYFYTMGWYRQAPGKERELVATITWRGGRTYYADSVKGRFTITRDNAKNTVYLQMNSLKPEDTAVYYCNADYASYRHRMDYWGQGTQVTVSS	high polyreactivity
QVQLVESGGGLVQAGGSLRLTCAASGRTFYVYAMGWYRQAPGKERELVAAITRSGDSTYADSVKGRFTISRDNAKNTVYLQMNSLKPEDTAVYYCSKRYTHYSFRRFDYWGQGTQVTVSS	low polyreactivity
QVQLVESGGGLVQAGGSLRLTCAASGSIFAAKAMGWYRQAPGKERELVAAIRTRTGSTYYADSVKGRFTISRDNAKNTVYLEMNSLKPEDTAVYYCAADGGVPFWIHSTYYYWGQGTQVTVSS	low polyreactivity
QVQLVESGGGLVQAGGSLRLTCAASGSIFAKNAMGWYRQAPGKERELVAAIDLNGGSTYYADSVKGRFTISRDNAKNTDYLQMNSLKPEDTAVYYCAVYYGHSSVIRSSPEYDSWGQGTQVTVSS	low polyreactivity
QVQLVESGGGLVQAGGSLRLTCAASGSIFDKNVMGSYRQAPGKERELVAAISSSGGSTYYADSVKGRFTISRDIAKNTVYLQMNSLKPVDSAVYYCAKVPGRDRADRYWDHYSHDYWGQGTQVTVSS	high polyreactivity
QVQLVESGGGLVQAGGSLRLTCAASGSIFDSNAMGWYRQAPGKERELVADIRGIGGSTFYADSVKWRFTISRDNAKNTVYLQMNSLKPEDTAVYYCAAVGKSPSRFGYWGQGTQVTVSS	low polyreactivity
QVQLVESGGGLVQAGGSLRLTCAASGSIFGGYGMGWYRQAPGKERELVAAITSGTSTYYADSVKGRFTISRDNAKNTVYLQMNSLKPEDTAVYYCAARPYPHSAYEGDYWGRGTQVTVSS	low polyreactivity
QVQLVESGGGLVQAGGSLRLTCAASGSIFGGYTMGWYRQAPGKERELVAAISRRGGNTYYADSVKGRFTISRDNAKYTVYLQMNSLKPEDTAVYYCNARPTTYNYDYWGQGTQVTVSS	high polyreactivity
QVQLVESGGGLVQAGGSLRLTCAASGSIFGLYAMGWYRHAPGKERELVAAISRTGGSTYYADSVKGRFTISRDNAKNTVYLQMNSLKPEDTAVYSCNAVYFRYRYNYWGQGTQVTVSS	high polyreactivity
QVQLVESGGGLVQAGGSLRLTCAASGSIFGVYTMGWYRQAPGKERELVAAITSAGSTYADSVKGRFTISRDNAKNTVYLQMNSLNPEDTEVYYCNAQSFLLSLRVELREPHEYWGQGTQVTVSS	low polyreactivity
QVQLVESGGGLVQAGGSLRLTCAASGSIFNGNAMGWYRQAPGKERELVAAISNVGRTDYADSVKGRFTISRDNAKNTVYLQMNSLKPEDTAVYYCAAGVYSGYNRYFAPRSWFGYYYWGQGTQVTVSS	low polyreactivity
QVQLVESGGGLVQAGGSLRLTCAASGSIFPKNAIGWYRQAPGKERQLVAGITSRTGRTYYADSVKGRFTISRDNAENTVYLQMNSLKPEDTAVYYCAARNPSGKGRYDYWGQGSQVTVSS	high polyreactivity

Sequence	polyreactivity (PSR sort gate)
QVQLVESGGGLVQAGGSLRLTCAASGSIFRSYAMGWYRQAPGNERELVAAISWRGGRTYYADSVKGRFTISRDNAKNTVYLQRNSLKPADTAVYYCAARKRAQQGTRDHDYWGQGTQVTVSS	high polyreactivity
QVQLVESGGGLVQAGGSLRLTCAASGSIFSYNAKGRYRQAPGKERELVAGITTGDSTNYADSVKGRFTISRDNAKNTVYLQMNCLKPEDTAVYYCAATRLVSYHYPDLDSQQGGYWGQGTQVTVSS	low polyreactivity
QVQLVESGGGLVQAGGSLRLTCAASGSIFTKYAMGWYRQAPGKERELVAGISSSGCSTYYADSVKGRFTISRDYAKNTVYLQMNSLKPEDTAVYYCAARGYYKYDYWGQGTQVTVSS	high polyreactivity
QVQLVESGGGLVQAGGSLRLTCAASGSIFVGYAMGWYREAPGKEMELVAAITTRGDTTYYADSVKGRFTISRDNAKNTVYLQMNSLKPEHTAVYYCNTTSFFQAWPSDVQYDYWGQGTQVTVSS	low polyreactivity
QVQLVESGGGLVQAGGSLRLTCAASGSIFYAYAMGWYRQAPGKERELVAGITFSDDSTYYADSVKGRFTISRDNAKNTVYLQMNSLKPEDTAVYYCAADTISWYGNYYYWGQGTQVTVSS	high polyreactivity
QVQLVESGGGLVQAGGSLRLTCAASGSIFYTNAMGWYRQAPGKERELVAAIRWSGGRTYYADSVKGRFTISRDNAKNTVYLQMNSLKPEDTAVYYCTVVVRYPSAYAYWGQGTQVTLSS	high polyreactivity
QVQLVESGGGLVQAGGSLRLTCAASGSIIVTYAMGWYRQAPGKERELVAVINSGTSTNYADSVKGRFTISRDNAKNTVYLQMNSLKPEDTAVYYCNADPLVYYYQDYRFCMGYWGQGTQVTVSS	low polyreactivity
QVQLVESGGGLVQAGGSLRLTCAASGSILDSNAMGWYRQAPGKERELVSAITSGGSTYYADSVKGRFTISRDNAKNTVYLQMNSLKPEDTAVYYCAAAYLGYGAVQPSYEGGYWGQGTQVTVSS	low polyreactivity
QVQLVESGGGLVQAGGSLRLTCAASGSILYYAMGWYRQAPGKERELVAAITRSGTTTYYAASVKGRFTISRDNAKKTVYLQMNSLKPEDTAVYFWAARTSYDYDYWGQGTQVTVSS	high polyreactivity
QVQLVESGGGLVQAGGSLRLTCAASGSITSINAMGWYRQAPGKERELVAAINWSSGSTYYADSVKGRFTISRDYAKNTVYLQKISLKPEDTAVYYCAVDRYFFAGYYGYEYWGQGTQGTVSS	high polyreactivity
QVQLVESGGGLVQAGGSLRLTCAASGSIVDANAMGLYRQAPGKERELVAAISSGDSTSYADSVKGRFTISRDNAKNTVYLQLNSLNPEDTAVYYCNAYVDSQGGFTLKHDYWGQGTQVTVSS	low polyreactivity
QVQLVESGGGLVQAGGSLRLTCAASGSTFDINAMGWYRQAPGKERELVASITFSGGSTYYADSVKGRFTISRDNAKNTVYLQMNSLKPEDTAVYYCAADSSGEYPRWLRYDYWGQGTQVTVSS	low polyreactivity
QVQLVESGGGLVQAGGSLRLTCAASGSTFIRYTMVWYRQAPGKEREFVATITWSTGTTYYADSVKGRFTISRDNAKYSVYLQMNSLKPEDTAVYYCAAVYYYYTGITYDYWGQGTQVTVSS	high polyreactivity
QVQLVESGGGLVQAGGSLRLTCAASGSTFLGYAMGWYRQAPGKERELVAAINLSTSGTYYADSVKGRFTISRDNAKNTVYLQMNSLKPEDTAVYYCAAAYSNINYYYQYYYWGQGTQVTVSS	low polyreactivity
QVQLVESGGGLVQAGGSLRLTCAASGSTFNAYTMGWYRQAPGKERELVAAISSGAGTYYADSVKGRFTISRDNAKYIVYLPMNSLKPEDTAVYYCAADPVGYYDPSVYWGQGTLVTVSS	low polyreactivity
QVQLVESGGGLVQAGGSLRLTCAASGSTFRHNAMGWYRQAPGKETELVAVITDGASTNYADSVKGRFTMSRDNAKNTVYLQLNSLKPEDTAVYYCAAYHRGYYTGREYYYWGQGTQVTVSS	low polyreactivity
QVQLVESGGGLVQAGGSLRLTCAASGSTFRVNVMGWYRQAPGTERELVAAITTSGGSTYYADSVKGRFTISRDNAKNTVYLQMNSLKPEDTAVYYCKTTYPSGWGPDMDYWGQGTQVTVSS	low polyreactivity
QVQLVESGGGLVQAGGSLRLTCAASGSTFSDYAMGWNRQAHGKERELVAGITGGGGTYYADSVKGRFTISRDNAKNTVYLQMNSLKPEDTALYYCAAGRRHGLGYWGQGTLVTVSS	low polyreactivity
QVQLVESGGGLVQAGGSLRLTCAASGSTFYYYTMGWYRQAPWKERELVAAITSAGSTHYADSVKGRFTISRDNAKNNVYLQMNSLKPEDTAVYYCAAKSHWWWRGYYYWGQGTQVTVSS	high polyreactivity
QVQLVESGGGLVQAGGSLRLTCAASGSTLIDNVMGWYRQAPGKERELVASITSSDGTTYADSVKGRFTISRDNAKNSVYLQMNSLKPEDTAVYYFAARPWYGTYNYWGEGTQVTVSS	low polyreactivity
QVQLVESGGGLVQAGGSLRLTCAASGTIFKRYAMRLYRQAPGKERELVATISSRGSCTNYADSLKGRFTISRDIAKNTVYLQMNSLKPQDTAVYYCASEVYRGDFWGQGTQVTVSS	high polyreactivity
